{"source": "paper PMC6638984", "about": "“Increased association between Epstein-Barr virus EBNA2 from type 2 strains and the transcriptional repressor BS69 restricts EBNA2 activity” (PLoS Pathogens, 2019)", "molecular_target": "T1, BS69CC-MYND (BS69 amino acid 480–602, CC-MYND domain) (Homo sapiens, UniProt Q15326)", "T1 construct": "The BS69 CC-MYND domain (amino acids 480–602) was amplified from pCI-BS69; GST (N, cleaved yes); 6xHis (N, cleaved yes); made in house; host or cells: E. coli Rosetta 2 (DE3) pLysS", "T1 sequence (Q15326 480-602)": "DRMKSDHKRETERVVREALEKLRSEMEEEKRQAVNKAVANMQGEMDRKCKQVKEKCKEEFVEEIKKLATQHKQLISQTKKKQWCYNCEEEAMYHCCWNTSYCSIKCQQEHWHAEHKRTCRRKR", "assay": "Isothermal titration calorimetry (ITC) of EBNA2 peptides and polypeptides binding to BS69CC-MYND", "conditions": "25°C, mean ± SD of 3 independent experiments; for n value (stoichiometry of BS69CC-MYND/EBNA2 binding, monomeric proteins), one-site model: pH 7.5, polypeptides 19 x 2.0 μl injections into 0.1 mM BS69CC-MYND", "description": "We hypothesised that the impaired gene activation and growth maintenance properties of type 2 EBNA2 may be the result of increased binding to BS69 as a result of the aspartate to serine amino acid difference adjacent to BS69 binding motif 2. […] We used isothermal titration calorimetry (ITC) to determine the affinity of peptide binding to the C-terminal region of BS69 (amino acid 480–602) comprising the CC-MYND domain that we expressed and purified from E.coli (Fig 1B and 1C). […] The difference in binding between type 1 and type 2 EBNA2 motif 2 peptides could be influenced by both the aspartate to serine change and differences in two other amino acids present in the sequence (Fig 1B and 1C).\nThe BS69 CC-MYND domain (amino acids 480–602) was amplified from pCI-BS69 containing the full length human BS69 sequence (gift from Dr Stéphane Ansieau) and cloned using SLIC into the SmaI and HindIII sites of pET49b+ to generate a construct expressing an N-terminal GST-6x Histidine tag BS69CC-MYND fusion protein (S2 Table).\nFour commercially synthesized peptides (Peptide Synthetics) were used for ITC. These included BS69 binding motif 2 of type 1 EBNA2 (435–445) or type 2 EBNA2 (402–412) and putative BS69 binding motif 3 of type 1 EBNA2 (445–455) or type 2 EBNA2 (412–422).\nFrozen protein was quickly thawed using running water and dialysed overnight at 4°C using Slide-A-Lyzer MINI Dialysis Units (Thermo Scientific) against ITC buffer (20mM Tris-HCl, 100mM NaCl and 1mM TCEP, pH 7.5). The next day, protein samples were centrifuged at 13000 rpm for 10 mins at 4 °C and the concentration was determined by NanoDrop spectroscopy (NanoDrop Technologies) with their respective molecular weights and extinction coefficients. EBNA2 peptides (1mM) and polypeptides (type 1, 0.3 mM and type 2, 0.6 mM) were titrated against BS69CC-MYND (0.1mM) at 25°C using a MicroCalTM iTC200 instrument (Malvern). For peptides, 13 x 3.0 μl injections were used for titration. For EBNA2 polypeptides 19 x 2.0 μl or 29 x 1.3 μl injections were used for titration. ITC data were corrected for non-specific heat and analysed using MicroCal Origin 7.0. The experiments were performed in triplicate alongside a control experiment with no BS69CC-MYND (buffer only in the cell). All polypeptides were used within 24 hrs of dialysis into ITC buffer.", "key": {"[1]": {"conditions": "pH 7.5, peptides 13 injections, polypeptides 19 injections"}}, "data": [{"substance": "YPPSIDPADLD [T1 EBNA2 motif 3]", "values": [{"measurement": "KD (dissociation constant), one-site (one event) binding model", "setting": "20mM Tris-HCl, 100mM NaCl, 1mM TCEP, pH 7.5, EBNA2 titrated into 0.1 mM BS69CC-MYND, peptides 1 mM, 13 injections, n fixed to 1, polypeptides 19 x 2.0 μl injections", "result": "not able to detect any binding"}]}, {"substance": "T1 EBNA2_381-445: type 1 EBNA2 polypeptide, amino acids 381–445, expressed and purified from E.coli", "values": [{"measurement": "Kd", "setting": "20mM Tris-HCl, 100mM NaCl, 1mM TCEP, pH 7.5, EBNA2 titrated into 0.1 mM BS69CC-MYND, peptides 1 mM, 13 injections, n fixed to 1, polypeptides 19 x 2.0 μl injections, read-out: KD (dissociation constant), one-site (one event) binding model", "result": 950, "unit": "nM"}, {"measurement": "-TΔS, one-site model", "setting": "[1]", "result": "18.4 ± 0.46", "unit": "kcal/mol"}, {"measurement": "ΔG, one-site model", "setting": "[1]", "result": "-8.22 ± 0.08", "unit": "kcal/mol"}, {"measurement": "ΔH, one-site model", "setting": "[1]", "result": "-26.6 ± 0.53", "unit": "kcal/mol"}, {"measurement": "n value (stoichiometry of BS69CC-MYND/EBNA2 binding, monomeric proteins), one-site model", "result": "0.42 ± 0.02"}, {"measurement": "n value (stoichiometry of BS69CC-MYND/EBNA2 binding, monomeric proteins), one-site model", "setting": "listed as type 1 EBNA2_381-445", "result": 0.42}]}]}
